One assay deals with T1, mCD40 (Mus musculus, UniProt P27512).
T1 sequence (P27512 20-289): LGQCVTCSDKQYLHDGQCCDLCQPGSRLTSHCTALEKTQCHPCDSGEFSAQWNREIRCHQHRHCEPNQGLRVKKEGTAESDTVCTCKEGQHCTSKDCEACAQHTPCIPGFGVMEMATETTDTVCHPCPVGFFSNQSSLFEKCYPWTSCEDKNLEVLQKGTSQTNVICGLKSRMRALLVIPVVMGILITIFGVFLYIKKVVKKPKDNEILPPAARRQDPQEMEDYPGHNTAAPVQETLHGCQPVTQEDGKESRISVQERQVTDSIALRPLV
Briefly: CD40 ELISA binding assay of supernatants. As to conditions: clarified supernatant. Background: ELISA stands for enzyme-linked immunosorbent assay.

For a further assay, the system named is anti-mCD40L antibody. The assay is described as follows: CD40 ELISA binding assay of supernatants, detection by antibody. As to conditions: clarified supernatant.
Assay [1] can be described thus: CD40 ELISA binding assay, control coatings. Particulars: clarified supernatant.
In another assay the target is T2, CD47 on mouse CT26 cells (Mus musculus, UniProt Q61735).
T2 construct: CT26 is a mouse colon carcinoma cell line which expresses CD47 on its cell surface; endogenous in cells; host or cells: CT26 mouse colon carcinoma cells
T2 sequence (Q61735 19-303): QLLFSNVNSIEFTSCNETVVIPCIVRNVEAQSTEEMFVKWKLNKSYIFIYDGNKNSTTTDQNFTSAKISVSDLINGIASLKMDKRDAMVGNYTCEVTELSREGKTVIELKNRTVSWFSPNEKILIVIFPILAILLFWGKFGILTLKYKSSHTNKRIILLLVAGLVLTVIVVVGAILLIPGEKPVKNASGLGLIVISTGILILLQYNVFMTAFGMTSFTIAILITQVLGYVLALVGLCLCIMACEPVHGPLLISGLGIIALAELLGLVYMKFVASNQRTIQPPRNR
Briefly: flow cytometric analysis of CD47 expressing CT26 cells incubated with strain supernatants. In kind it is binding. The source says: FIG. 29 depicts a diagram of a flow cytometric analysis of CT26 cells.
FIG. 30 depicts a diagram of a flow cytometric analysis of CT26 cells.

B1: Secreted CD40-L1: extracellular portion of murine CD40L secreted by SYN3366, in clarified supernatant (protein)
chain: HRRLDKVEEEVNLHEDFVFIKKLKRCNKGEGSLSLLNCEEMRRQFEDLVKDITLNKEEKKENSFEMQRGDEDPQIAAHVVSEANSNAASVLQWAKKGYYTMKSNLVMLENGKQLTVKREGLYYVYTQVTFCSNREPSSQRPFIVGLWLKPSSGSERILLKAANTHSSSQLCEQQSVHLGGVFELQAGASVFVNVTEASQVIHRVGFSSFGLLKL
modifications: left off: small tags and cut ends
notes: extracellular portion of murine CD40L secreted by SYN3366, in clarified supernatant
As to B1, in the assay with mCD40, the “ELISA signal, coating mCD40” value is reported as 0.231. For the same molecule, in the assay with anti-mCD40L antibody, the “ELISA signal, coating Anti-mCD40L” value is recorded as 0.394. Moreover, in assay [1], the “ELISA signal, coating IgG” value is on record as 0.052 and the “ELISA signal, coating PBS” value is on record as 0.049.

B2: murine SIRPalpha: tet-inducible murine SIRPalpha secreted from an E. coli Nissle strain (protein, UniProt P97797 32-513, looked up)
Tyrosine-protein phosphatase …: KELKVTQPEKSVSVAAGDSTVLNCTLTSLLPVGPIRWYRGVGPSRLLIYSFAGEYVPRIRNVSDTTKRNNMDFSIRISNVTPADAGIYYCVKFQKGSSEPDTEIQSGGGTEVYVLAKPSPPEVSGPADRGIPDQKVNFTCKSHGFSPRNITLKWFKDGQELHPLETTVNPSGKNVSYNISSTVRVVLNSMDVNSKVICEVAHITLDRSPLRGIANLSNFIRVSPTVKVTQQSPTSMNQVNLTCRAERFYPEDLQLIWLENGNVSRNDTPKNLTKNTDGTYNYTSLFLVNSSAHREDVVFTCQVKHDQQPAITRNHTVLGFAHSSDQGSMQTFPDNNATHNWNVFIGVGVACALLVVLLMAALYLLRIKQKKAKGSTSSTRLHEPEKNAREITQVQSLIQDTNDINDITYADLNLPKEKKPAPRAPEPNNHTEYASIETGKVPRPEDTLTYADLDMVHLSRAQPAPKPEPSFSEYASVQVQRK
Turning to B2, in the assay with CD47 on mouse CT26 cells (FIG. 29), the “competition of binding to CD47 on CT26 cells by recombinant SIRPalpha” value is reported as “recombinant SIRPalpha can compete with the binding”. The “competition of binding to CD47 on CT26 cells by anti-CD47 antibody” value with CD47 on mouse CT26 cells (FIG. 30) is on record as “the antibody can compete with the binding”.

B3: Secreted CD40-L2: soluble form of murine CD40L secreted by SYN3367, in clarified supernatant (protein)
chain: MQRGDEDPQIAAHVVSEANSNAASVLQWAKKGYYTMKSNLVMLENGKQLTVKREGLYYVYTQVTFCSNREPSSQRPFIVGLWLKPSSGSERILLKAANTHSSSQLCEQQSVHLGGVFELQAGASVFVNVTEASQVIHRVGFSSFGLLKL
modifications: left off: small tags and cut ends
Regarding B3, the “ELISA signal, coating mCD40” value with mCD40 was 0.639. For the same molecule, in the assay on anti-mCD40L antibody, the “ELISA signal, coating Anti-mCD40L” value is recorded as 0.825. In assay [1], the “ELISA signal, coating IgG” value is given as 0.052 and the “ELISA signal, coating PBS” value was 0.05.

Values taken from patent publication US11471494B2, “Microorganisms programmed to produce immune modulators and anti-cancer therapeutics in tumor cells” (Synlogic Operating Company, Inc., priority 2017, dated 2022).
